# Data reported in US20090098130A1 (published 2009).
# Non-standard residues stand in square brackets, D forms with d. No end group written: not given here. Aib = CC(C)(N)C(=O)O
# Target: glucagon-like peptide 1 receptor (GLP-1R)
# Assay: cell-based or functional assay
row,Binder,"EC50 (µM), glucose-stimulated insulin secretion (GSIS) assay on pancreatic β cell cultures [µM]"
1,H[Aib]EGTFTSDLSKQLEEEAVRLAIEFLKNGGPSSGAPPPS [GA targeting peptide of SEQ ID NO: 10],< 10
2,H[Aib]EGTFTSDLSKQLEEEAVRLAIEFLKN [GA targeting peptide of SEQ ID NO: 9],< 10
